This is an account of results in patent US20240115706A1.

Residue numbers refer to the chain shown, from its start.

Experiment [1] has as its target mouse GUCY2C-rCD4 fusion protein (Mus musculus (house mouse); Rattus norvegicus). The experiment can be described thus: ELISA (DELFIA), antigen on streptavidin plate, scFv culture solution, Eu-anti-tag Ab.
The target in experiment [2] is monkey GUCY2C-rCD4 fusion protein (Macaca fascicularis (crab-eating macaque); Rattus norvegicus). The description is as above.
Chain of monkey GUCY2C-rCD4 fusion protein (Macaca fascicularis (crab-eating macaque); Rattus norvegicus) (chain, as listed by the source limits assumed): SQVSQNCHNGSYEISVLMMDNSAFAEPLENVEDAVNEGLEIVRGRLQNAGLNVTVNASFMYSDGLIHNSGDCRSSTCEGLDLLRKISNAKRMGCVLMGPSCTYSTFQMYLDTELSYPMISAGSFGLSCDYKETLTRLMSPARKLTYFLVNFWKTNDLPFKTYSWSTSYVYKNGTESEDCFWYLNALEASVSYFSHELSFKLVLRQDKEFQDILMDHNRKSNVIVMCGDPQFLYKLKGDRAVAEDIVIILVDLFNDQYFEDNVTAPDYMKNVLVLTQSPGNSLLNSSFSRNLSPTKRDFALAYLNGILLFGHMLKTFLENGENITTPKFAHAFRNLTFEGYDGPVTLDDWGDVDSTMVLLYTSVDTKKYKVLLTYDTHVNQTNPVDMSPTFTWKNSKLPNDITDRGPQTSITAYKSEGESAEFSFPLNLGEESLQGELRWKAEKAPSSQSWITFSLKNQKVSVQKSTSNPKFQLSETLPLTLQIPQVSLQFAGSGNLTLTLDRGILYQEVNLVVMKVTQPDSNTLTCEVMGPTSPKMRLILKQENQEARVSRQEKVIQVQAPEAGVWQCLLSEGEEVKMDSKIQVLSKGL

B1: scFv A03 (scFv)
scFv: QVQLVQSGAEVKKPGSSVKVSCKASGGTFSSYTISWVRQAPGQELEWMGRIIPILGIANYAQKFQGRVTITADKSTSTAYMELSSLRSEDTAVYYCARDYSSSWNSMDVWGQGTLVTVSSGGGGSGGGGSGGGASQSGLTQPPSASGSPGQSVTISCTGTSSDIGYYHYVSWYQQHPGKAPKLMIYEDSKRPSGISNRFSGSKSGTTASLTVSGLQAEDEAHYYCSSFTSRSTWVFGGGTQLTVL
B1 had a Binding ELISA signal in experiment [1] of 77.

B2: scFv A05 (scFv)
scFv: QVQLVQSGAEVKKPGSSVKVSCKASGGTFSSYTITWVRQAPGQGLEWMGRIIPVLGIANYAQKFQGRVTITADKSTSTAYMELSSLRSEDTAVYYCARDYSSSWNSMDVWGQGTLVTVSSGGGGSGGGGSGGGASQSGLTQPRSVSGSPGQSVTISCTGTSSDVGGYNYVSWYQQHPGKAPKLMIYDVSKRPSGVPDRFSGSKSGNTASLTVSGLHAEDEADYYCSSYAGSNNFVFGTGTKVTVL
On to B2, for which the Binding ELISA signal in experiment [2] was 89; in experiment [1] it was 62.

B3: scFv A06 (scFv)
scFv: B2 scFv with S30G, T35S, V54I, G166A, D187E, G201A, H216Q, F234W, T238G, V242L
In experiment [1], B3 returned a Binding ELISA signal of 80.

B4: scFv A01 (scFv)
scFv: QVQLVQSGAEVKKPGASVKVSCKASGYTFTSYYMHWVRQAPGQGLEWMGIINPSGGSTSYAQEFQGRVTMTRDTSTSTVYMELSSLRSEDTAVYYCARDGQWLQFDYWGQGTLVTVSSGGGGSGGGGSGGGASDIVMTQSPLSLPVTLGQPASISCRSSQSLLKKSDGNTYLSWYHQRPGQSPRRLIYKVSNRDSGVPDRFSGSGSDTDFTLKISRVETEDVGIYYCMQGSHWPPTFGQGTKVEIK
The molecule B4 had a Binding ELISA signal in experiment [1] of 352.

B5: scFv A04 (scFv)
scFv: EVQLVQPGAEVKKPGSSVKVSCKASGGTLSSYAISWVRQAPGQGLEWMGRIIPILGITNYAQKFQGRVTITADKSTSTAYMELSSLRSEDTAVYFCARDQRPASMDVWGQGTLVTVSSGGGGSGGGGSGGGASQSELTQPASVSGSPGQSITISCTGTSSDVGGYIYVSWYQQHPGKVPKLMIHDVSHRPSGVSNRFSGSRSGNTASLTISGLQAEDEADYFCSSYTSSNNYYFGTGTKVTVL
Take B5: the Binding ELISA signal was 73 in experiment [2] and 66 in experiment [1].

B6: scFv A02 (scFv)
scFv: B5 scFv with T227A, S228G, Y233V
On to B6, for which the Binding ELISA signal is 60 in experiment [2] and 74 in experiment [1].

B7: scFv A12 (scFv)
scFv: B5 scFv with Y233V
For B7, the Binding ELISA signal in experiment [2] came to 56; in experiment [1] it was 53.

B8: scFv C02 (scFv)
scFv: QVQLVQSGAEVKKPGSSVKVSCKASGGTFSSYTISWVRQAPGQGLEWMGRIIPILGIANYAQKFQGRVTITADKSTSTAYMELSSLRSEDTAVYYCARDRSYNWLDPWGRGTLVTVSSGGGGSGGGGSGGGASQSALTQPVSVSGSPGQSITISCTGTISDVGDYNYVSWYQQHPGKAPKLMIYDVNNRPSGVSNRFSGSKSGNTASLTISGLQAEDEADYYCSSYTSSSTLVFGGGTKLTVL
As for B8, the Binding ELISA signal in experiment [1] stood at 61.

B9: scFv B12 (scFv)
scFv: QVQLVESGGGLVKPGGSLRLSCAASGFTFSSYSMNWVRQAPGKGLEWVSVIYSGGSTHYADSVKGRFTISRHNSKNTLYLQMNSLRAEDTAVYYCARGAGTLNAFDIWGQGTTVTVSSGGGGSGGGGSGGGASQSGLTQPPSTSGSPGQSVTISCTGTSSDVGAYSYVSWYQQHPGKAPKLLIYAVTKRPSGVPDRFSGSKSGNTASLTVSGLQDEDEADYYCSSFAGGSTLVFGGGTKLTVL
Molecule B9 registered a Binding ELISA signal in experiment [1] of 48.

B10: scFv B01 (scFv)
scFv: EVQLVQPGAEVKKPGSSVKVSCKASGGTLSSYAISWVRQAPGQGLEWMGRIIPILGITNYAQKFQGRVTITADKSTSTAYMELSSLRSEDTAVYFCARDQRPASMDVWGQGTLVTVSSGGGGSGGGGSGGGASQSGLTQPASVSGSPGQSITISCTGTSSDVGGYNYVSWYQQHPGKAPKLMIYEVSNRPSGVSNRFSGSKSGNTASLTISGLQAEDEADYYCSTVTSLSTYVFGTGTKLTVL
In turn, B10 registered a Binding ELISA signal in experiment [1] of 70.

B11: scFv B07 (scFv)
scFv: EVQLVQSGAEVKRPGSSVKVSCKASGYTFTSYYMHWVRQAPGQGLEWMGIINPSGGSTSYAQKFQGRVTMTRDTSTSTVYMELSSLRSEDTAVYYCAAGTYSSGWTIDYWGQGTTVTVSSGGGGSGGGGSGGGASDIVMTQSPLSLPVTLGQPASISCRSSQSLVYTDGNTYLNWFQQRPGQSPRRLIYKVSNRDSGVPDRFSGSGSGTDFTLKISRVEAEDVGIYYCMHSKQWPPTFGGGTKVEIK
For B11, in experiment [1], the Binding ELISA signal is 66.
